Test results taken from PMC6579465, “The priming factor CAPS1 regulates dense-core vesicle acidification by interacting with rabconnectin3β/WDR7 in neuroendocrine cells” (The Journal of Biological Chemistry, 2019).

Target: T1, CAPS1 (calcium-dependent activator protein for secretion, CADPS) (rat (endogenous in rat brain), UniProt Q62717 1-1289)
T1 construct: CAPS1 (CADPS), endogenous protein of rat brain; Precipitated with a rabbit polyclonal CAPS peptide antibody and eluted with the 21-mer peptide immunogen; source: endogenous, rat brain crude synaptosomal membrane fraction, solubilized in 1% Triton X-100
T1 sequence (Q62717 whole entry): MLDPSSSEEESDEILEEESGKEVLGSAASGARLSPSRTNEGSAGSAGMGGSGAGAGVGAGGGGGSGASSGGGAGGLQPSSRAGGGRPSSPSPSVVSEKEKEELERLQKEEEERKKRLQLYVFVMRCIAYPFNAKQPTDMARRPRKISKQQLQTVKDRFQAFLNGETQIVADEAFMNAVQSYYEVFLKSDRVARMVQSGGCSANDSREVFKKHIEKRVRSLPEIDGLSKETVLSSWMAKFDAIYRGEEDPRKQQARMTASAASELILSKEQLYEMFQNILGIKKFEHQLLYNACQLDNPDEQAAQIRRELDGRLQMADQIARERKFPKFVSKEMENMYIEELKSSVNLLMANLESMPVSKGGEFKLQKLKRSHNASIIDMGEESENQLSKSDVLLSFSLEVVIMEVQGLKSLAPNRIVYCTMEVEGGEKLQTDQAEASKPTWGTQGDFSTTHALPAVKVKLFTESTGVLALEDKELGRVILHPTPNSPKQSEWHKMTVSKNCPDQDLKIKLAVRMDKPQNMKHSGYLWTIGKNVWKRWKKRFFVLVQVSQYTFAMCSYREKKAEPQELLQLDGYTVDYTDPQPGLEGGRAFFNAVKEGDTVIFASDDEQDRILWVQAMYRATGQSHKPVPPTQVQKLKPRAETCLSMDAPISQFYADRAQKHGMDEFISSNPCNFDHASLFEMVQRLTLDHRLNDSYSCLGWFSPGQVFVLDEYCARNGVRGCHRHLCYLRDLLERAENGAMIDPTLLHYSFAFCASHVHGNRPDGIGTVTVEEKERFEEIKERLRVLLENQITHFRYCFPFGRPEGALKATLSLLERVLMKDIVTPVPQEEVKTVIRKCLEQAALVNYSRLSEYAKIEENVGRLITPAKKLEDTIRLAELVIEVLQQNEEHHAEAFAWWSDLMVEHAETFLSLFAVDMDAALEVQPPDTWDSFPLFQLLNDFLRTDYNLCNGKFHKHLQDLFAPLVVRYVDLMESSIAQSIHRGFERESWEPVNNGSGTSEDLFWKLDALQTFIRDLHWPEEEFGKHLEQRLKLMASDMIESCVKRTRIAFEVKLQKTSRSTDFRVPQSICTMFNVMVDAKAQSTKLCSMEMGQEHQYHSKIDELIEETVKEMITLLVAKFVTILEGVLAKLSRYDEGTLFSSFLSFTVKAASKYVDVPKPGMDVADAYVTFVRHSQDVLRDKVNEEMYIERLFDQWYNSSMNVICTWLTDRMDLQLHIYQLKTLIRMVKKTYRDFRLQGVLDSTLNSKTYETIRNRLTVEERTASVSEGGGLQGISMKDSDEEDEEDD
Assay: affinity purification with mass spectrometry; CAPS1 immunoprecipitate of detergent extract resolved by SDS-PAGE; Coomassie-stained bands seen in the CAPS1 but not the control immunoprecipitate excised, in-gel digests, LC-MS/MS
Settings: partners not purified

B1: Rabconnectin3β (Rbcn3β) / WD repeat domain 7 (WDR7) (natural protein, rat (endogenous in rat brain), UniProt Q9ERH3 1-1488, looked up)
chain: MAGNSLVLPIVLWGRKAPTHCISSILLTDDGGTIVTGCHDGQICLWDLSEELEVNPRALLFGHTAAITCLSKACASGDKQYTVSASANGEMCLWDVNDGRCIEFTKLACTHTGIQFYQFSVGNQREGRLLCHGHYPEILVVDATSLEVLYSLVSKISPDWISSMSIIRSHRTQEDTVVALSVTGILKVWIVTSEISGLQDTEPIFEEESKPIYCQNCQSLSFCAFTQRSLLVVCSKYWRVFDAGDYSLLCSGPSEDGQTWTGGDFVSADKVIIWTENGQSYIYKLPASCLPASDSFRSDVGKAVENLIPPVQHSLLDQKDRELVICPPVTRFFYGCKEYLHKLLIQGDSSGRLSIWNIADIADKQEANEGLKTTTCISLQDAFDKLKPCPAGIIDQLSVIPNSNEPLKVTASVYIPAHGRLVCGREDGSIIIVPATQTAIVQLLQGEHMLRRGWPPHRTLRGHRNKVTCLLYPHQVSARYDQRYLISGGVDFSVIIWDIFSGEMKHIFCVHGGEITQLLVPPENCSARVQHCVCSVASDHSVGLLSLREKKCIMLASRHLFPIQVIKWRPSDDYLVVGCTDGSVCVWQMDTGALDRCAMGITAVEILNACDEAVPAAVDSLSHPAVNLKQAMTRRSLAALKNMAHHKLQTLATNLLASEASDKGNLPKYSHNSLMVQAIKTNLTDPDIHVLFFDVEALIIQLLTEEASRPNTALISPENLQKASGSSDKGGSFLTGKRAAVLFQQVKETIKENIKEHLLDEEEDEEEVMRQRREESDPEYRASKSKPLTLLEYNLTMDTAKLFMSCLHAWGLNEVLDEVCLDRLGMLKPHCTVSFGLLSRGGHMSLMLPGYNQAAGKLLQAKAEAGRKGPATESVGKGTYTVSRAVTTQHLLSIISLANTLMSMTNATFIGDHMKKGPTRPPRPGTPDLSKARDSPPASSNIVQGQIKQAAAPVSARSAADHSGSASASPALRTCFLVNEGWSQLAAMHCVMLPDLLGLGKFRPPLLEMLARRWQDRCLEVREAAQALLLAELRRIEQAGRKETIDTWAPYLPQYMDHVISPGVTAEAMQTMAAAPDASGPEAKVQEEEHDLVDDDITTGCLSSVPQMKKMSTSYEERRKQATAIVLLGVIGAEFGAEIEPPKLLTRPRSSSQIPEGFGLTSGGSNYSLARHTCKALTFLLLQPPSPKLPPHSTIRRTAIDLIGRGFTVWEPYMDVSAVLMGLLELCADAEKQLANITMGLPLSPAADSARSARHALSLIATARPPAFITTIAKEVHRHTALAANTQSQQSIHTTTLARAKGEILRVIEILIEKMPTDVVDLLVEVMDIIMYCLEGSLVKKKGLQECFPAICRFYMVSYYERSHRIAVGARHGSVALYDIRTGKCQTIHGHKGPITAVSFAPDGRYLATYSNTDSHISFWQMNTSLLGSIGMLNSAPQLRCIKTYQVPPVQPASPGSHNALRLARLIWTSNRNVILMAHDGKEHRFMV
notes: Rabconnectin3β / WDR7, endogenous protein of rat brain; also called Rabcn3β; Rbcn3β/WDR7; source: endogenous, rat brain crude synaptosomal membrane fraction, solubilized in 1% Triton X-100
- stoichiometry relative to CAPS1 (bands of the immunoprecipitate): 0.167 Rbcn3 subunit : CAPS1
